Biological target: T1, eCK8 (Homo sapiens, UniProt P05787)
T1 construct: methods to investigate on CK8 cellular expression at the cell surface analysed by flow cytometry; endogenous in cells
T1 sequence (P05787 1-483): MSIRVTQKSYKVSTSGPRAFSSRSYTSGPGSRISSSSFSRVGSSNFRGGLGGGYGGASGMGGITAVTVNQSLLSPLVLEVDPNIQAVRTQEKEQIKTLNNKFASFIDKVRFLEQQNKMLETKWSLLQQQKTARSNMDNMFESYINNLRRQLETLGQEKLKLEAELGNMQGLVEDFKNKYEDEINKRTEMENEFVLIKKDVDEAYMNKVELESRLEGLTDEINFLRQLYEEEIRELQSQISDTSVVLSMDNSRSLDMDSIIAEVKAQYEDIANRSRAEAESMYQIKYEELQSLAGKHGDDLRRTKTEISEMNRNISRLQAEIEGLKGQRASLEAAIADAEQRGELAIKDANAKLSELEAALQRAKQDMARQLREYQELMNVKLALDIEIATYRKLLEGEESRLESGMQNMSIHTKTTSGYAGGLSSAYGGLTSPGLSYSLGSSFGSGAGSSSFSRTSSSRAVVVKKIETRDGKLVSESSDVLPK
Assay: Antibody binding assay by flow cytometry (eCK8 expression on solid tumour cell lines)
Conditions: MAb 5 μg/mL, mean ± SD
Procedure: Cell lines. The established human neuroglioma cells H4, HS683, U373 or A172 (available from ATCC); the established human colorectal cells HT29; the established human pancreatic cells PANC1 or MIA-PA-CA2; the established human kidney adenocarcinoma cells A704 or ACHN and the established human lung adenocarcinoma cells A549 were grown in Dulbecco's Modified Eagle's Medium (Sigma, St Quentin Fallavier, France) supplemented with 10% heat-inactivated foetal bovine serum (FBS) (Sigma, St Quentin Fallavier, France), […] L-glutamine (Sigma, St Quentin Fallavier, France) and 100 U/mL, 100 μg/mL penicillin-streptomycin (Sigma, St Quentin Fallavier, France). The established human glioblastoma astrocytoma cells U87MG or T98G, the human head and neck cancer cells FaDu or Detroit562, the human urinary cancer cells UM-UC-3, J82, HT1197 or HT1376 and the human prostate cancer cells DU145 were grown in Eagle's Minimum Essential Medium (Sigma, St Quentin Fallavier, France) supplemented with 10% heat-inactivated fetal bovine serum (FBS) (Sigma, St Quentin Fallavier, France), […] L-glutamine (Sigma, St Quentin Fallavier, France) and 100 U/mL, 100 μg/mL penicillin-streptomycin (Sigma, St Quentin Fallavier, France). The established human breast adenocarcinoma cells MDAMB231, MCF-7 or HBL100 and the human colorectal cancer cells HCT116 were grown in Dulbecco's Modified Eagle's Medium Glutamax Low Glucose (Life Technologies, St Aubin, France) supplemented with 10% heat-inactivated fetal bovine serum (FBS) (Sigma, St Quentin Fallavier, France), […] L-glutamine (Sigma, St Quentin Fallavier, France) and 100 U/mL, 100 μg/mL penicillin-streptomycin (Sigma, St Quentin Fallavier, France).The established human colorectal cells HCT15 or SW480 and the human head and neck cancer cells TR146 were grown in Dulbecco's Modified Eagle's Medium Glutamax High Glucose (Life Technologies, St Aubin, France) supplemented with 10% heat-inactivated fetal bovine serum (FBS) (Sigma, St Quentin Fallavier, France) and 100 U/mL, 100 μg/mL penicillin-streptomycin (Sigma, St Quentin Fallavier, France). The established human head and neck cancer cells BICR16, BICR18 or BICR56 were grown in Dulbecco's Modified Eagle's Medium (Sigma, St Quentin Fallavier, France) supplemented with 10% heat-inactivated foetal bovine serum (FBS) (Sigma, St Quentin Fallavier, France), […] L-glutamine (Sigma, St Quentin Fallavier, France), 100 U/mL, 100 μg/mL penicillin-streptomycin (Sigma, St Quentin Fallavier, France) and 0.4 μg/mL hydrocortisone (Sigma, St Quentin Fallavier, France). The established human head and neck cancer cells SCC9, SCC4 or SCC15 were grown in Dulbecco's Modified Eagle's Medium/F12 (Life Technologies, St Aubin, France) supplemented with 10% heat-inactivated foetal bovine serum (FBS) (Sigma, St Quentin Fallavier, France), […] L-glutamine (Sigma, St Quentin Fallavier, France), 100 U/mL, 100 μg/mL penicillin-streptomycin (Sigma, St Quentin Fallavier, France) and 0,4 μg/mL hydrocortisone (Sigma, St Quentin Fallavier, France). The established human urinary bladder carcinoma cells 5637, the human prostate cancer cells LNCap clone FGC, the established human lung adenocarcinoma cells NCIH1703 or NCIH292, the human pancreatic cancer cells PSN1 or BxPC3 and the human kidney adenocarcinoma cells Caki1 were grown in RPMI-1640 Medium (Sigma, St Quentin Fallavier, France) supplemented with 10% heat-inactivated fetal bovine serum (FBS) (Sigma, St Quentin Fallavier, France), […] L-glutamine (Sigma, St Quentin Fallavier, France) and 100 U/mL, 100 μg/mL penicillin-streptomycin (Sigma, St Quentin Fallavier, France). […]

[1] = Detroit562 cell line (Head & Neck)
[2] = LNCaP clone FGC cell line (Prostate)
[3] = MIA-Pa-Ca-2 cell line (Pancreatic)

B1: HzR022 (D-A10): humanized anti-CK8 monoclonal antibody D-A10; VL SEQ ID NO: 14, VH SEQ ID NO: 15 (antibody, V domains shown)
VH: EVQLVESGGGLVQPGGSLRLSCAASGFTFSSYWMSWVRQAPGKGLVWVSDINSDGSSTKYADSVKGRFTISRDNAKNTLYLQMNSLRAEDTAVYYCIAHYSGGGFAYWGQGTLVTVSS
VL: DIVMTQAPLSLPVTPGEPASISCRSSKSLLYSNGYNYLYWFLQKPGQSPQLLIYYMSNLASGVPDRFSGSGSGTDFTLKISRVEAEDVGVYYCMQSLEYPFTFGQGTKLEIK
modifications: VHHzD-A10; VLHzD-A10
% labelled cells (8-MG-BA cell line (GBM)): 72 ± 11% | MFI (8-MG-BA cell line (GBM)): 261 ± 38 | % labelled cells (42-MG-BA cell line (GBM)): 54 ± 7% | MFI (42-MG-BA cell line (GBM)): 247 ± 44 | % labelled cells (5637 cell line (Urinary)): 59 ± 20% | MFI (5637 cell line (Urinary)): 284 ± 61 | % labelled cells (A172 cell line (GBM)): 35 ± 23% | MFI (A172 cell line (GBM)): 186 ± 14 | % labelled cells (A549 cell line (Lung)): 36 ± 12% | MFI (A549 cell line (Lung)): 193 ± 38 | % labelled cells (A704 cell line (Renal)): 37 ± 26% | MFI (A704 cell line (Renal)): 184 ± 30 | % labelled cells (ACHN cell line (Renal)): 46 ± 20% | MFI (ACHN cell line (Renal)): 195 ± 20 | % labelled cells (AsPC-1 cell line (Pancreatic)): 26 ± 14% | MFI (AsPC-1 cell line (Pancreatic)): 181 ± 17 | % labelled cells (BICR16 cell line (Head & Neck)): 52 ± 2% | MFI (BICR16 cell line (Head & Neck)): 206 ± 10 | % labelled cells (BICR18 cell line (Head & Neck)): 79 ± 9% | MFI (BICR18 cell line (Head & Neck)): 257 ± 23 | % labelled cells (BICR56 cell line (Head & Neck)): 39 ± 34% | MFI (BICR56 cell line (Head & Neck)): 123 ± 4 | % labelled cells (BxPC-3 cell line (Pancreatic)): 41 ± 17% | MFI (BxPC-3 cell line (Pancreatic)): 220 ± 17 | % labelled cells (CFPAC-1 cell line (Pancreatic)): 62 ± 4% | MFI (CFPAC-1 cell line (Pancreatic)): 279 ± 25 | % labelled cells (Caki1 cell line (Renal)): 49 ± 12% | MFI (Caki1 cell line (Renal)): 267 ± 36 | % labelled cells (DU145 cell line (Prostate)): 19 ± 11% | MFI (DU145 cell line (Prostate)): 185 ± 42 | % labelled cells [1]: 36 ± 0% | MFI [1]: 203 ± 15 | % labelled cells (FaDu cell line (Head & Neck)): 56 ± 8% | MFI (FaDu cell line (Head & Neck)): 258 ± 20 | % labelled cells (H4 cell line (GBM)): 58 ± 33% | MFI (H4 cell line (GBM)): 199 ± 40 | % labelled cells (HBL100 cell line (Breast)): 67 ± 8% | MFI (HBL100 cell line (Breast)): 219 ± 6 | % labelled cells (HCT116 cell line (Colon)): 64 ± 0% | MFI (HCT116 cell line (Colon)): 283 ± 16 | % labelled cells (HS683 cell line (GBM)): 54 ± 9% | MFI (HS683 cell line (GBM)): 225 ± 24 | % labelled cells (HT29 cell line (Colon)): 49 ± 9% | MFI (HT29 cell line (Colon)): 203 ± 22 | % labelled cells (HT1197 cell line (Urinary)): 23 ± 7% | MFI (HT1197 cell line (Urinary)): 240 ± 4 | % labelled cells (HT1376 cell line (Urinary)): 53 ± 3% | MFI (HT1376 cell line (Urinary)): 497 ± 11 | % labelled cells (HuP-T3 cell line (Pancreatic)): 62 ± 17% | MFI (HuP-T3 cell line (Pancreatic)): 260 ± 20 | % labelled cells (J82 cell line (Urinary)): 68 ± 9% | MFI (J82 cell line (Urinary)): 319 ± 4 | % labelled cells [2]: 76 ± 9% | MFI [2]: 412 ± 21 | % labelled cells (MCF-7 cell line (Breast)): 56 ± 33% | MFI (MCF-7 cell line (Breast)): 250 ± 61 | % labelled cells (MDAMB231 cell line (Breast)): 49 ± 14% | MFI (MDAMB231 cell line (Breast)): 179 ± 15 | % labelled cells [3]: 58 ± 14% | MFI [3]: 264 ± 14 | % labelled cells (NCIH292 cell line (Lung)): 53 ± 20% | MFI (NCIH292 cell line (Lung)): 272 ± 38 | % labelled cells (NCIH1703 cell line (Lung)): 33 ± 10% | MFI (NCIH1703 cell line (Lung)): 188 ± 12 | % labelled cells (PANC-1 cell line (Pancreatic)): 37 ± 7% | MFI (PANC-1 cell line (Pancreatic)): 198 ± 23 | % labelled cells (PSN-1 cell line (Pancreatic)): 15 ± 6% | MFI (PSN-1 cell line (Pancreatic)): 193 ± 16 | % labelled cells (SCC4 cell line (Head & Neck)): 59 ± 16% | MFI (SCC4 cell line (Head & Neck)): 222 ± 88 | % labelled cells (SCC9 cell line (Head & Neck)): 30 ± 23% | MFI (SCC9 cell line (Head & Neck)): 193 ± 23 | % labelled cells (SCC 15 cell line (Head & Neck)): 41 ± 21% | MFI (SCC 15 cell line (Head & Neck)): 167 ± 13 | % labelled cells (SW480 cell line (Colon)): 38 ± 3% | MFI (SW480 cell line (Colon)): 179 ± 1 | % labelled cells (T98G cell line (GBM)): 48 ± 25% | MFI (T98G cell line (GBM)): 211 ± 20 | % labelled cells (TCCSUP cell line (Urinary)): 62 ± 10% | MFI (TCCSUP cell line (Urinary)): 255 ± 48 | % labelled cells (TR146 cell line (Head & Neck)): 55 ± 18% | MFI (TR146 cell line (Head & Neck)): 140 ± 4 | % labelled cells (U87-MG cell line (GBM)): 38 ± 23% | MFI (U87-MG cell line (GBM)): 178 ± 35 | % labelled cells (U373 cell line (GBM)): 53 ± 1% | MFI (U373 cell line (GBM)): 161 ± 7 | % labelled cells (UM-UC-3 cell line (Urinary)): 26 ± 23% | MFI (UM-UC-3 cell line (Urinary)): 156 ± 14
